For data set [1], the system named is CD4 T cell lines. As to the kind of experiment: Peptide specificity of antibody-specific CD4 T cell lines from healthy donors (IFN-γ ELISPOT). It is filed as cell-based, human. The settings on record: IFN-γ ELISPOT, antibody 3 µM on DCs, peptides 10 µg/mL. The source says:
Peripheral blood mononuclear cells (PBMCs) were obtained from blood cells collected at the Etablissement Français du Sang (EFS, Rungis, France), as buffy coat preparations from anonymous healthy donors who gave informed consent, in accordance with EFS guidelines. Antibody-specific CD4 T cell lines were generated as described previously ([28]). DCs were produced from plastic-adherent cells of PBMCs, while CD4 T cells were isolated from PBMCs by using magnetic microbeads (Miltenyi Biotech, Paris, France). DCs were loaded overnight at 37°C with the therapeutic antibody or with KLH used as a positive control (1 µM) and matured with lipopolysaccharide (1 µg/mL). CD4 T cells (200,000/w) were stimulated by protein-loaded DCs (20,000/w) and cultured during 21 days ([28]). Their peptide specificity was tested by interferon-γ (IFN-γ) ELISPOT ([28]). Spot number was determined by the AID ELISPOT Reader System (AID).
CD4 T cell lines were also raised against KLH to assess the ability of the donors to generate specific T cell responses (Figure S2 in Supplementary Material). Each independent T cell line (CD4 T cells present in a single well) was evaluated for its specificity using pools of 45 overlapping peptides encompassing the entire variable regions (VH and VL) of the therapeutic antibodies (Tables S3 and S4 in Supplementary Material), individual peptides, and DCs loaded with the therapeutic antibodies (Figure 1). […] HLA restriction was evaluated for T cell lines of donors #225 and #251 by inhibition experiments with anti-HLA class II antibodies.
T cells were incubated with autologous DCs alone (none) or with DCs previously loaded with each antibody (3 µM) or with autologous unloaded peripheral blood mononuclear cells (PBMCs) (no pool) or PBMCs loaded with a pool of peptides (10 µg/mL) (left panels) and with individual peptides (right panels).
Figure 2 Specificity and restriction of T cell lines generated from healthy donors. […] T cells were incubated with autologous unloaded peripheral blood mononuclear cells (PBMCs) (none) and with PBMCs loaded with individual peptides. […] (B) For inhibition assays, anti-HLA-DR (L243), -DQ (SPVL3), and -DP (B7/21) antibodies were added at 10 µg/mL to the IFN-γ ELISPOT.
Donors are identified by a number.

Data set [2] deals with HLA-DR molecules of dendritic cells (DCs). As to the kind of experiment: MHC-associated peptide proteomics (MAPPs) assay. On the set-up: species or system human. Here is the method: Briefly, CD14 positive mononuclear cells were purified from PBMCs isolated from human buffy coats sampled from consented healthy donors (Blood Donation Center Bern, Bern, Switzerland) and differentiated into immature DCs ([37]). Immature DCs were matured by adding lipopolysaccharide (1 µg/mL, Sigma) and loaded separately with one of the chimeric antibodies. After incubation for 24 h at 37°C and 5% CO2, DCs were harvested, washed in PBS, and lysed in hypotonic buffer containing 1% Triton X-100. After immunoprecipitation of HLA-DR molecules with Mab L243-conjugated beads, peptides were eluted from HLA-DR molecules by adding 0.1% trifluoroacetic acid (Fluka, Buchs, Switzerland) at 37°C and lyophilized using an Eppendorf Concentrator 5301 (Eppendorf AG, Hamburg, Germany). Lyophilized peptides were resuspended in hydrophilic buffer containing 5% acetonitrile and 1.1% formic acid. Peptide composition was analyzed by liquid chromatography (nano capillary system, Dionex Corporation, Sunnyvale, CA, USA) on a self-packed fused-silica C18 reversed-phase nano-high-performance liquid chromatography column connected to a mass spectrometer (Q-Exactive, Thermo, CA, USA) via electrospray ionization (LC–ESI–MS/MS). Peptides were identified via a database search approach using the SEQUEST algorithm as detailed ([37]).

Data set [3] in a line: Levels of circulating Ifx or Rtx (bridging ELISA). Type of data set: in vivo, human. A general note: An ELISA detects its analyte on a solid surface through an enzyme-linked reagent.
Data set [4] is described as follows: Levels of anti-drug antibodies (ADAs) (bridging ELISA). It is filed as in vivo, human.
Data set [5] has as its system patients. The settings on record: Rtx ref [5]–[7]; Ifx ref [8]–[10]; alemtuzumab ref [11]; vedolizumab ref [12]; adalimumab ref [10], [13], [14]; cited from earlier work. The source says:
However, a large subset of patients develops neutralizing antidrug antibodies (ADAs) that reduce their therapeutic efficacy ([1]) and induce allergic responses ([2]). As immunological tolerance is expected to regulate the response to self-sequences ([3]), almost all therapeutic antibodies are humanized, with various degrees of antibody humanization ([4]).

The mark [6] stands for this setting: monocyte-derived DCs of 34 healthy donors exposed to Rtx or Ifx, LC–ESI–MS/MS.

With “Ifx: chimeric antibody anti-TNFα infliximab (Remicade)”, the “specificity of T cell line 113.6” value in data set [1] (donor #113) is “not for Ifx”. Also, the “specificity of T cell line 247.26” value in data set [1] (donor #247) is given as “specific for Ifx”. For the same substance, the “clusters that overlapped CDR regions” value in data set [2] (monocyte-derived DCs of 34 healthy donors) was “four of the eight”. Also, in data set [2] (setting [6]), the “number of clusters of HLA-DR-associated peptides in VH” value was “four”. In data set [2] (setting [6]), the “number of clusters of HLA-DR-associated peptides in VL” value is on record as “four”. The circulating drug level in data set [3] (patient C, uveitis) is under 0.1 µg/mL; in data set [3] (patient D, Crohn’s), 0 µg/mL; in data set [3] (patient E, Crohn’s) it was under 0.1 µg/mL; in data set [3] (patient G, Crohn’s), 0.13 µg/mL; in data set [3] (patient I, Crohn’s) it was 0.11 µg/mL; in data set [3] (patient J, Crohn’s), under 0.1 µg/mL. Also, the ADA level was 63 U/ml in data set [4] (patient C, uveitis); 61 U/ml in data set [4] (patient D, Crohn’s); over 200 U/ml in data set [4] (patient E, Crohn’s); over 200 U/ml in data set [4] (patient G, Crohn’s); over 200 U/ml in data set [4] (patient I, Crohn’s); 95 U/ml in data set [4] (patient J, Crohn’s). In addition, the “induction of ADAs in patients” value in data set [5] is “known to elicit specific ADAs in multiple patients”.
For the substance adalimumab, the “induction of ADAs in patients” value in data set [5] is “known to generate ADAs in many patients”.
Turning to alemtuzumab: humanized antibody, the “induction of ADAs in patients” value in data set [5] is “known to generate ADAs in many patients”.
In the case of vedolizumab: humanized antibody, the “induction of ADAs in patients” value in data set [5] is on record as “known to generate ADAs in many patients”.
